Source: patent US20230295297A1

Legend:
[1] = biological target: recombinant human TREM2-DAP12 fusion protein expressed on cells (human); assay: cell-based or functional assay
[2] = biological target: T1, mouse TREM2 on cells (mouse), Q99NH8; assay: KD cell binding
T1 chain: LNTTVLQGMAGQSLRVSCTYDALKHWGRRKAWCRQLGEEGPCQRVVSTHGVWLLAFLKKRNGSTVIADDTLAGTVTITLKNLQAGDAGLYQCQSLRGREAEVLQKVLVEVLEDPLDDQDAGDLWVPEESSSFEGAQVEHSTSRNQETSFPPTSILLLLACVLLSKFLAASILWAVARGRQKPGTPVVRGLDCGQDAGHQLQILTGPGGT

[3] = biological target: T1, mouse TREM2 on cells (mouse), Q99NH8; assay: FACS, BWZmT2 cells
[4] = biological target: T1, mouse TREM2 on cells (mouse), Q99NH8; assay: cell-based or functional assay
[5] = biological target: T1, mouse TREM2 on cells (mouse), Q99NH8; assay: FACS, WT mouse macrophages
[6] = biological target: TREM2 protein of the 'Percent APOE binding' column of Table 9B; assay: TREM2 binding to APOE with antibody; assay not described for this table

Sequence of recombinant human TREM2-DAP12 fusion protein expressed on cells (human) (chain, as listed by the source limits assumed, form in doubt): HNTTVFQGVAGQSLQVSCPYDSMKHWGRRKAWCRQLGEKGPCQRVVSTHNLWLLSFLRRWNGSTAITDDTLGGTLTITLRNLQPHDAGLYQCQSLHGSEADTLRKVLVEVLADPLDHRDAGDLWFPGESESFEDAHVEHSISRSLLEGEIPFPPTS

B1: 8A1 (antibody, IgG2a, V domains shown)
VL: DIQMTQSPASLSVSVGETVTITCRTSENVYSNLAWYQQKQGKSPQLLVYAATNLADGVPSRFSASGSATQFSLKINSLQSADFGSYYCHHFWGTPYTFGGGTKLEMN
VH: EVQLQQSGAELVKPGASVKISCKASGYAFSNYWMSWVKQRPGKGLEWIGQIYPGDGDTKYNGKFEGKATLTADKSSSTAYMQLSSLTSEDSAVYFCSREKGADYYGSTYSAWFSYWGQGTLVTVSA
[1]
  BWZhT2 LUC Plate-bound (FOB): 5.46 FOB
  BWZhT2 LUC Solution (FOB): 0.35 FOB

B2: 9F5 (antibody, IgG1, V domains shown)
VL: DVVMTQTPLSLPVSLGDQASISCRSSQSLVHSNGYTYLHWYLQKPGQSPKLLIYKVSNRFSGVPDRFSGSGSGTDFTLKISRVEADDLGVYFCSQSTRVPYTFGGGTKLEIK
VH: QVQLQQSGPELVKPGASLKISCKASGYAFSSSWMNWVKQRPGKGLEWIGRIYPGDGDTNYNGEFRVRATLTADTSSTTAYMQLSSLTSEDSAVYFCARLLRNQPGESYAMDYWGQGASVTVSS
[1]
  BWZhT2 LUC Plate-bound (FOB): 2.48 FOB
  BWZhT2 LUC Solution (FOB): 1.75 FOB
  BWZhT2 LUC Solution + PS (Δ Bmax): 2930

B3: 9G1 (antibody, IgG1, V domains shown)
VL: DVLMTQTPLSLPVSLGDQASISCRFSQSLVHSNGNTYLHWYLQKPGQSPKLLIYKVSNRFSGVPDRFSGSGSGTDFTLRISGVEAEDLGVYFCSQSTRVPPTFGGGTKLEIK
VH: QVQLQQSGAELVKPGASVKLSCKASGYIFTTYWIHWVKQRPGRGPEWIGRIDPNNGDTNYNEKFKTKATLTVDKPSSTADMQLSSLTSEDSAVYYCVMTGTDFDYWGQGTTLTVSS
[1]
  BWZhT2 LUC Plate-bound (FOB): 1.59 FOB
  BWZhT2 LUC Solution (FOB): 1.07 FOB
  BWZhT2 LUC Solution + PS (Δ Bmax): 2660

B4: 6H2 (antibody, IgG2a, V domains shown)
VL: DVLMTQTPLSLPVSLGDQASISCRSSQSIVHSNGNTYLEWYLQKPGQSPKLLIYKVSNRFSGVPDRFSGSGSGTDFTLKISRVEAEDLGVYYCFQGSHVPFTFGSGTKLEIK
VH: QVQLQESGPGLVQPSQSLSIICTVSAFSLTNYAVHWIRQSPGKGLEWLGVIWSGGSTAFNAAFISRLNISKDNSKSQVFFKMNSLQSDDTAIYYCATHYYRSTYAFSYWGQGTLVTVSA
[1]
  BWZhT2 LUC Plate-bound (FOB): 1.1 FOB
  BWZhT2 LUC Solution (FOB): 3.6 FOB
  BWZhT2 LUC Solution + PS (Δ Bmax): -40200

B5: 10A9 (antibody, IgG1, V domains shown)
VL: DVVMTQTPLSLPVSLGDQASISCRSSQTIIHSNGNTYLEWYLRKPGQSPKLLIYKVSNRFCGVPDRFSGSGSGTDFTLKISRVEAEDLGVYYCFQGSHVPYTFGGGTELEIK
VH: QVQLQQSGAEVVKPGASVKMSCKTSGYPFSNFWITWVKQRPGQGLVWIGDIYPGSDNRNFNERFKTKATLTVDTSSSTAYMHLSSLTSEDSAVYFCAREAYYTNPGFAYWGQGTLVTVSA
[1]
  BWZhT2 LUC Plate-bound (FOB): 2.18 FOB
  BWZhT2 LUC Solution (FOB): 0.31 FOB

B6: 3A2 (antibody, IgG1, V domains shown)
VL: DVVMTQTPLSLPVSLGDQASISCRSSQTIIHSNGNTYLEWYLRKPGQSPKLLIYKVSNRFSGVPDRFSGSGSGTDFTLKISRVEAEDLGVYYCFQGSHVPYTFGGGTELEIK
VH: QVQLQQSGAELVKPGASVKMSCKTSGYPFSNFWITWVKQRPGQGLVWIGDIYPGSDNSNYNEKFKTKATLTVDTSSSTAYMHLSSLTSEDSAVYFCAREAYYTNPGFAYWGQGTLVTVST
[1]
  BWZhT2 LUC Plate-bound (FOB): 1.07 FOB
  BWZhT2 LUC Solution (FOB): 0.32 FOB

B7: 3A7 (antibody, IgG1, V domains shown)
VL: not shown
VH: EVKLEESGGGLVQPGGSMKLSCAASGFTFSDAWMGWVRQSPEKGLEWVAEIRDKVKNHATYYAESVKGRFTISRDDSKSTVYLQMNTLRADDTGIYYCRLGVFDYWGQGTTLTVSS
modifications: not checked
[2]
  Kd: 5.86 nM
[3]
  MFI BWZmT2: 2870 MFI
[4]
  BWZmT2 LUC Plate-bound (FOB): 7.8 FOB
  BWZmT2 LUC Solution (FOB): 7.18 FOB
  decrease in cell surface level of TREM2 on BMDM (FACS): 58%
[5]
  % Positive WT BMMACS: 26.3%
[6]
  Percent APOE binding: 92.3%
